From patent publication US20190142971A1, “FORMULATION AND DELIVERY OF MODIFIED NUCLEOSIDE, NUCLEOTIDE, AND NUCLEIC ACID COMPOSITIONS” (ModernaTX, Inc., priority 2013, published 2019)

Test system: non-human primates (cynomolgus monkey)
Assay: Example 22: NHP hematology: neutrophils, reticulocytes, HGB, HCT, RBC (Tables 40-44)
Type: in vivo
Method: LNP formulations, shown in Table 33 (above), were administered to non-human primates (NHP) (cynomolgus monkey) (n=2) as intravenous injection (IV). The NHP were administered a single modified mRNA IV dose of 0.5 mg/kg, 0.05 mg/kg or 0.005 mg/kg of G-CSF or EPO in a dose volume of 0.5 mL/kg. The NHPs were bled before dosing with the modified mRNA LNP formulations to determine protein expression in the serum and a baseline complete blood count. After administration with the G-CSF modified mRNA formulation the NHP were bled at 8, 24, 48 and 72 hours to determined protein expression. After administration with the EPO modified mRNA formulation the NHP were bled at 8, 24, 48, 72 hours and 7 days to determined protein expression.
Samples collected from the NHPs after they were administered with G-CSF or EPO modified mRNA formulations were analyzed by ELISA to determine protein expression. Neutrophil and reticulocyte count was also determined pre-dose, 24 hours, 3 days, 7 days, 14 days and 18 days after administration of the modified G-CSF or EPO formulation.

[1] = 0.05 mg/kg, 14/18 days, Female NHP
[2] = 0.05 mg/kg, 14/18 days, Male NHP
[3] = 0.05 mg/kg, 24 hours, Female NHP
[4] = 0.05 mg/kg, Pre-dose, Female NHP
[5] = 0.5 mg/kg, 14/18 days, Female NHP
[6] = 0.5 mg/kg, 14/18 days, Male NHP
[7] = 0.5 mg/kg, 24 hours, Female NHP
[8] = 0.5 mg/kg, Pre-dose, Female NHP

B1: EPO: modified mRNA encoding human erythropoietin, SEQ ID NO: 7, Cap1, fully modified with 5-methylcytosine and pseudouridine; LNP NPA-060-1 in Examples 17-22 (nucleic acid)
chain: GGGAAAUAAGAGAGAAAAGAAGAGUAAGAAGAAAUAUAAGAGCCACCAUGGGAGUGCACGAGUGUCCCGCGUGGUUGUGGUUGCUGCUGUCGCUCUUGAGCCUCCCACUGGGACUGCCUGUGCUGGGGGCACCACCCAGAUUGAUCUGCGACUCACGGGUACUUGAGAGGUACCUUCUUGAAGCCAAAGAAGCCGAAAACAUCACAACCGGAUGCGCCGAGCACUGCUCCCUCAAUGAGAACAUUACUGUACCGGAUACAAAGGUCAAUUUCUAUGCAUGGAAGAGAAUGGAAGUAGGACAGCAGGCCGUCGAAGUGUGGCAGGGGCUCGCGCUUUUGUCGGAGGCGGUGUUGCGGGGUCAGGCCCUCCUCGUCAACUCAUCACAGCCGUGGGAGCCCCUCCAACUUCAUGUCGAUAAAGCGGUGUCGGGGCUCCGCAGCUUGACGACGUUGCUUCGGGCUCUGGGCGCACAAAAGGAGGCUAUUUCGCCGCCUGACGCGGCCUCCGCGGCACCCCUCCGAACGAUCACCGCGGACACGUUUAGGAAGCUUUUUAGAGUGUACAGCAAUUUCCUCCGCGGAAAGCUGAAAUUGUAUACUGGUGAAGCGUGUAGGACAGGGGAUCGCUGAUAAGCUGCCUUCUGCGGGGCUUGCCUUCUGGCCAUGCCCUUCUUCUCUCCCUUGCACCUGUACCUCUUGGUCUUUGAAUAAAGCCUGAGUAGGAAG
modifications: Cap1, 5-methylcytosine, pseudouridine
Female NHP HGB (0.05 mg/kg IV, Pre-dose): 133 g/L | Female NHP Neutrophils (0.05 mg/kg IV, Pre-dose): 2.15 10^9/L | Male NHP HGB (0.05 mg/kg IV, Pre-dose): 133 g/L | Male NHP Neutrophils (0.05 mg/kg IV, Pre-dose): 0.97 10^9/L | HCT [1]: 0.43 L/L | RBC [1]: 5.57 10^12/L | HCT [2]: 0.46 L/L | RBC [2]: 5.57 10^12/L | HCT [3]: 0.39 L/L | RBC [3]: 5.18 10^12/L | HCT (0.05 mg/kg, 24 hours, Male NHP): 0.43 L/L | RBC (0.05 mg/kg, 24 hours, Male NHP): 5.25 10^12/L | HCT (0.05 mg/kg, 3 days, Female NHP): 0.4 L/L | RBC (0.05 mg/kg, 3 days, Female NHP): 5.16 10^12/L | HCT (0.05 mg/kg, 3 days, Male NHP): 0.38 L/L | RBC (0.05 mg/kg, 3 days, Male NHP): 4.81 10^12/L | HCT (0.05 mg/kg, 7 days, Female NHP): 0.41 L/L | RBC (0.05 mg/kg, 7 days, Female NHP): 5.31 10^12/L | HCT (0.05 mg/kg, 7 days, Male NHP): 0.45 L/L | RBC (0.05 mg/kg, 7 days, Male NHP): 5.37 10^12/L | HCT [4]: 0.43 L/L | RBC [4]: 5.84 10^12/L | HCT (0.05 mg/kg, Pre-dose, Male NHP): 0.45 L/L | RBC (0.05 mg/kg, Pre-dose, Male NHP): 5.57 10^12/L | Female NHP HGB (0.5 mg/kg IV, 14/18 days): 133 g/L | Female NHP Neutrophils (0.5 mg/kg IV, 14/18 days): 2.36 10^9/L | Male NHP HGB (0.5 mg/kg IV, 14/18 days): 146 g/L | Male NHP Neutrophils (0.5 mg/kg IV, 14/18 days): 7.16 10^9/L | Female NHP HGB (0.5 mg/kg IV, 24 hours): 108 g/L | Female NHP Neutrophils (0.5 mg/kg IV, 24 hours): 11.85 10^9/L | Male NHP HGB (0.5 mg/kg IV, 24 hours): 127 g/L | Male NHP Neutrophils (0.5 mg/kg IV, 24 hours): 7.5 10^9/L | Female NHP HGB (0.5 mg/kg IV, 3 days): 120 g/L | Female NHP Neutrophils (0.5 mg/kg IV, 3 days): 5.22 10^9/L | Male NHP HGB (0.5 mg/kg IV, 3 days): 126 g/L | Male NHP Neutrophils (0.5 mg/kg IV, 3 days): 11.07 10^9/L | Female NHP HGB (0.5 mg/kg IV, 7 days): 134 g/L | Female NHP Neutrophils (0.5 mg/kg IV, 7 days): 2.85 10^9/L | Male NHP HGB (0.5 mg/kg IV, 7 days): 140 g/L | Male NHP Neutrophils (0.5 mg/kg IV, 7 days): 11.8 10^9/L | Female NHP HGB (0.5 mg/kg IV, Pre-dose): 123 g/L | Female NHP Neutrophils (0.5 mg/kg IV, Pre-dose): 1.82 10^9/L | Male NHP HGB (0.5 mg/kg IV, Pre-dose): 134 g/L | Male NHP Neutrophils (0.5 mg/kg IV, Pre-dose): 9.72 10^9/L | HCT [5]: 0.46 L/L | RBC [5]: 5.72 10^12/L | HCT [6]: 0.48 L/L | RBC [6]: 5.83 10^12/L | HCT [7]: 0.36 L/L | RBC [7]: 4.69 10^12/L | HCT (0.5 mg/kg, 24 hours, Male NHP): 0.4 L/L | RBC (0.5 mg/kg, 24 hours, Male NHP): 5.12 10^12/L | HCT (0.5 mg/kg, 3 days, Female NHP): 0.39 L/L | RBC (0.5 mg/kg, 3 days, Female NHP): 5.15 10^12/L | HCT (0.5 mg/kg, 3 days, Male NHP): 0.41 L/L | RBC (0.5 mg/kg, 3 days, Male NHP): 5.13 10^12/L | HCT (0.5 mg/kg, 7 days, Female NHP): 0.45 L/L | RBC (0.5 mg/kg, 7 days, Female NHP): 5.68 10^12/L | HCT (0.5 mg/kg, 7 days, Male NHP): 0.45 L/L | RBC (0.5 mg/kg, 7 days, Male NHP): 5.55 10^12/L | HCT [8]: 0.4 L/L | RBC [8]: 5.26 10^12/L | HCT (0.5 mg/kg, Pre-dose, Male NHP): 0.44 L/L | RBC (0.5 mg/kg, Pre-dose, Male NHP): 5.43 10^12/L | reticulocytes 3 days to 14/18 days after dosing relative to 24 hours after dosing (all dose groups): increase in reticulocytes | effect on hemoglobin (HGB), hematocrit (HCT) and red blood cell (RBC) count (cynomolgus monkey, in vivo): had an effect
